Measurements: US20110123447A1 (UNIVERSITY OF ZURICH, published 2011)
Where “and” joins values, the source holds several entries; their conditions need not be identical. Equal values may be shown once.

Tests used:
[1] = target: T1, NY-ESO-1 peptide spanning amino acids 21-40 (human, UniProt P78358 21-40); assay: epitope mapping ELISA on coated overlapping peptides
T1 construct: range 21-40; also called adjacent peptide 21-40
T1 peptide (looked up): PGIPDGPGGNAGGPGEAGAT
Procedure: (§1) 20mer peptides spanning the entire NY-ESO-1 protein with 10 aa overlaps shared by each adjacent peptides (Peptides&Elephants, Nuthetal, Germany) were used to coat Maxisorp ELISA plates (Nunc, Rochester, N.Y.). Human recombinant antibody Manhattan or patient serum (diluted 1:500 in PBS) was detected using horseradish peroxidase-conjugated Goat anti-human IgG+IgM (Jackson ImmunoResearch).
(§2) To identify the epitope recognized by Manhattan on NY-ESO-1 ELISA was performed using overlapping peptides spanning the complete NY-ESO-1 protein. […] This epitope, among others was also recognized by antibodies contained in serum of patient C1 (FIG. 3B).

[2] = target: T2, NY-ESO-1 peptide spanning amino acids 1-20 (human, UniProt P78358 1-20); assay: as above
T2 construct: range 1-20; also called adjacent peptide 1-20
T2 peptide (looked up): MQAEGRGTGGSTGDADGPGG
Procedure: as §1, §2

[3] = target: T3, NY-ESO-1 as expressed in NY-ESO-1-positive mamma carcinoma tissue sections and in the cell line SK-MEL-37 (human, UniProt P78358 1-180); assay: immunohistochemistry on NY-ESO-1-positive tissue sections
T3 construct: whole, on cells; The antigen is intracellular; It was detected in fixed sections or permeabilised cells, not on the cell surface; also called NY-ESO-1-positive tissue; NY-ESO-1-positive cell line SK-MEL-37
Procedure: Immunohistochemistry was performed on formalin-fixed, paraffin-embedded tissue. Heat-based antigen retrieval was applied to all slides. Non-specific fluorescence was blocked using polyclonal rabbit anti-human IgG (Dako, Baar, Switzerland) for 30 min at room temperature followed by a second block in 1% of low fat milk (Rapilait, Migros, Switzerland) for 10 min. Primary antibody or B cell conditioned medium was incubated overnight at 4° C. […] As positive control for the presence of NY-ESO-1 antigen a mouse anti-NY-ESO-1 monoclonal antibody (Zymed, South San Francisco, USA) was used.

[4] = target: T4, full length recombinant NY-ESO-1 protein (human, UniProt P78358 1-180); assay: ELISA on coated recombinant NY-ESO-1, supernatant of transfected 293 HEK cells
T4 construct: mature; The form was set to 'mature' to stand for full length

[5] = target: T5, NY-ESO-1 11-30 peptide (human); assay: saturation ELISA on coated NY-ESO-1 11-30 peptide
T5 construct: also called peptide spanning amino acids 11 to 30 of NY-ESO-1
T5 peptide: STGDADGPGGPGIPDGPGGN

[6] = target: T5, NY-ESO-1 11-30 peptide; assay: competition ELISA: soluble NY-ESO-1 11-30 peptide against plate bound peptide
Procedure: The avidity of Manhattan was determined by competition ELISA using increasing concentrations of soluble NY-ESO-1₁₁₋₃₀ peptide to compete for the plate bound peptide. As depicted in FIG. 3C, the antigen-binding equilibrium dissociation constant (KD) of the interaction of Manhattan with its cognate peptide was in the lower nanomolar range.

B1: human monoclonal antibody Manhattan (recombinant human antibody 12D7 clone No. 4) (antibody, human IgG1, V domains shown)
VH: QVQLVQSGGGVVRPGGSLRLSCAASGFSFIDYGMSWVRQVPGKGLEWVAGMNWSGDKKGHAESVKGRFIISRDNAKNTLYLEMSSLRVEDTALYFCARGEYSNRFDPRGRGTLVTVSS
VL: DIVMTQTPLSLPVTLGQPASLSCRSSQSLVFTDGNTYLNWFQQRPGQSPRRLIYKVSSRDPGVPDRFSGTGSGTDFTLEISRVEAEDIGVYYCMQGTHWPPIFGQGTKVEIK
notes: They were cloned into vectors with the constant regions of human IgG1 heavy chain and human kappa light chain and expressed in 293 HEK cells; also called 12D7 clone number 4; 12D7.4
- binding result [1]: no binding
- binding result [2]: no binding
- binding result [3]: binds
- binding result [4]: binds
- EC50 [5]: 1 nM and 0.15 µg/mL
- Kd [6]: 0.1 nM
